The test system of the data set is Escherichia coli TOP10. The experiment in a line: shrunken log2 fold change of peptide-encoding DNA abundance (4.5 h post-induction vs induction); higher = less antimicrobial activity (less host growth inhibition). The conditions noted are these: time post-induction: 4.5 h; library: site-saturation at positions 5, 18, 19, 20.
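Further: peptides expressed intracellularly from a pBAD plasmid library in pooled LB shake-flask culture, induced with 0.3% L-arabinose, DNA abundance read by NGS, three biological replicates, DESeq2 with apeglm shrinkage.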

With RRIRPRPPRLPRPRPRPLQAPRP, the “shrunken log2 fold change” value worked out at 0.496.

Regarding RRIRMRPPRLPRPRPRPGCFPRP, the “shrunken log2 fold change” value stood at 0.773. In the case of RRIRVRPPRLPRPRPRPHHHPRP it was -0.611; in that of RRIRNRPPRLPRPRPRPILLPRP, -0.103. In the case of RRIRERPPRLPRPRPRPWQSPRP it was -0.00865; in that of RRIRMRPPRLPRPRPRPMPDPRP, 0.716; in that of RRIRRRPPRLPRPRPRPILAPRP, 1.17. The value for RRIRYRPPRLPRPRPRPPGCPRP was 0.334; that for RRIRDRPPRLPRPRPRPWLMPRP was -0.1. RRIRARPPRLPRPRPRPLDEPRP: the “shrunken log2 fold change” value is 1.53. In the case of RRIRLRPPRLPRPRPRPRGHPRP it was 0.078; in that of RRIRPRPPRLPRPRPRPPRNPRP, 0.315; in that of RRIRNRPPRLPRPRPRPDENPRP, 0.00254. The value for RRIRVRPPRLPRPRPRPWIKPRP was 0.0141.

In the case of RRIRRRPPRLPRPRPRPDRNPRP, the “shrunken log2 fold change” value turned out to be 0.00393.

As for RRIRCRPPRLPRPRPRPKVIPRP, the “shrunken log2 fold change” value was -0.297. The value for RRIRNRPPRLPRPRPRPSFTPRP was -0.255.

With RRIRYRPPRLPRPRPRPWRTPRP, the “shrunken log2 fold change” value is -0.298. The value for RRIRCRPPRLPRPRPRPIMGPRP was 0.00854. The value for RRIRMRPPRLPRPRPRPMTWPRP was 0.0101; that for RRIRRRPPRLPRPRPRPGISPRP was 0.0929; that for RRIRYRPPRLPRPRPRPFPSPRP was -0.0392. The value for RRIRDRPPRLPRPRPRPARIPRP was 0.136. As to RRIRKRPPRLPRPRPRPVCEPRP, the “shrunken log2 fold change” value turned out to be 0.552.

RRIRIRPPRLPRPRPRPRSSPRP: the “shrunken log2 fold change” value amounted to 0.152. The value for RRIRFRPPRLPRPRPRPHMNPRP was -0.774; that for RRIRRRPPRLPRPRPRPATQPRP was 0.691; that for RRIRPRPPRLPRPRPRPREIPRP was 0.44.

With RRIRIRPPRLPRPRPRPPQTPRP, the “shrunken log2 fold change” value stood at 0.0803. The value for RRIRQRPPRLPRPRPRPPCVPRP was 0.214; that for RRIRYRPPRLPRPRPRPPKRPRP was -0.121; that for RRIRIRPPRLPRPRPRPSMYPRP was -1.53.

For RRIRPRPPRLPRPRPRPWQDPRP, the “shrunken log2 fold change” value came to 0.115. The value for RRIRARPPRLPRPRPRPELMPRP was 1.19; that for RRIRSRPPRLPRPRPRPYAWPRP was -0.087. In the case of RRIRSRPPRLPRPRPRPGTPPRP it was 0.0374; in that of RRIRQRPPRLPRPRPRPLFQPRP, 0.866; in that of RRIRDRPPRLPRPRPRPAWAPRP, 0.713. Consider RRIRWRPPRLPRPRPRPFKPPRP, for which the “shrunken log2 fold change” value was -0.231. In the case of RRIRWRPPRLPRPRPRPFQVPRP it was -0.19; in that of RRIRWRPPRLPRPRPRPELCPRP, 0.579. The value for RRIRWRPPRLPRPRPRPYPTPRP was -0.281; that for RRIRKRPPRLPRPRPRPQCMPRP was 0.0247; that for RRIRHRPPRLPRPRPRPQQVPRP was -0.0214. In the case of RRIRARPPRLPRPRPRPLGVPRP it was 1.44; in that of RRIRYRPPRLPRPRPRPWMGPRP, -0.294; in that of RRIRSRPPRLPRPRPRPIVAPRP, 0.0103. Turning to RRIRDRPPRLPRPRPRPDYEPRP, the “shrunken log2 fold change” value was -0.0367. The value for RRIRPRPPRLPRPRPRPSTAPRP was -0.105. In the case of RRIRSRPPRLPRPRPRPRICPRP it was -0.191; in that of RRIRRRPPRLPRPRPRPVRDPRP, 0.718. The value for RRIRIRPPRLPRPRPRPFMKPRP was -0.127; that for RRIRMRPPRLPRPRPRPCHGPRP was 0.241.

Take RRIRLRPPRLPRPRPRPAAMPRP: the “shrunken log2 fold change” value is 0.158.

Consider RRIRDRPPRLPRPRPRPSSCPRP, for which the “shrunken log2 fold change” value is 0.00339. In the case of RRIRERPPRLPRPRPRPRECPRP it was -0.018; in that of RRIRPRPPRLPRPRPRPRSIPRP, -0.149; in that of RRIRERPPRLPRPRPRPYAEPRP, -0.447. The value for RRIRPRPPRLPRPRPRPIYKPRP was -0.333; that for RRIRKRPPRLPRPRPRPKAHPRP was 0.242. In the case of RRIRSRPPRLPRPRPRPLYQPRP it was -0.339; in that of RRIRARPPRLPRPRPRPSGHPRP, 0.168; in that of RRIRPRPPRLPRPRPRPMLWPRP, 0.172. As to RRIRFRPPRLPRPRPRPAIEPRP, the “shrunken log2 fold change” value worked out at 0.519.

RRIRRRPPRLPRPRPRPKDDPRP: the “shrunken log2 fold change” value came out at 0.302. The value for RRIRARPPRLPRPRPRPMRAPRP was 1.25; that for RRIRCRPPRLPRPRPRPWNEPRP was -0.705; that for RRIRGRPPRLPRPRPRPPRLPRP was 0.702. In the case of RRIRVRPPRLPRPRPRPDTIPRP it was -0.00658. As to RRIRDRPPRLPRPRPRPKLYPRP, the “shrunken log2 fold change” value is 0.0658.

RRIRERPPRLPRPRPRPRLWPRP: the “shrunken log2 fold change” value was found to be 0.0271. The value for RRIRHRPPRLPRPRPRPAWPPRP was 0.613. The value for RRIRVRPPRLPRPRPRPWFWPRP was 0.121; that for RRIRMRPPRLPRPRPRPYHYPRP was -0.638.

On to RRIRCRPPRLPRPRPRPNLQPRP, for which the “shrunken log2 fold change” value is -0.506. In the case of RRIRFRPPRLPRPRPRPFCSPRP it was -0.486; in that of RRIRNRPPRLPRPRPRPQSHPRP, -0.68; in that of RRIRARPPRLPRPRPRPAVYPRP, -0.079. The value for RRIRNRPPRLPRPRPRPVHVPRP was 0.0303; that for RRIRIRPPRLPRPRPRPMDLPRP was -1.16; that for RRIRSRPPRLPRPRPRPGMNPRP was -0.249. In the case of RRIRERPPRLPRPRPRPYDWPRP it was -0.0444. On to RRIRRRPPRLPRPRPRPTYPPRP, for which the “shrunken log2 fold change” value was determined as 0.0623. The value for RRIRDRPPRLPRPRPRPRAIPRP was 0.108; that for RRIRIRPPRLPRPRPRPQLIPRP was -0.146. Regarding RRIRRRPPRLPRPRPRPMQKPRP, the “shrunken log2 fold change” value is 0.026. For the sequence RRIRDRPPRLPRPRPRPSGPPRP, the “shrunken log2 fold change” value is -0.0549. As to RRIRKRPPRLPRPRPRPNCAPRP, the “shrunken log2 fold change” value was determined as 0.873.

For the sequence RRIRCRPPRLPRPRPRPFYDPRP, the “shrunken log2 fold change” value is -0.826.

RRIRQRPPRLPRPRPRPNEGPRP: the “shrunken log2 fold change” value was -0.07.

For the sequence RRIRFRPPRLPRPRPRPCADPRP, the “shrunken log2 fold change” value was -0.102. The value for RRIRCRPPRLPRPRPRPSLTPRP was -0.538. The value for RRIRMRPPRLPRPRPRPPEHPRP was 0.353; that for RRIRCRPPRLPRPRPRPGVVPRP was 0.147.

For RRIRTRPPRLPRPRPRPREIPRP, the “shrunken log2 fold change” value came out at 0.00997. In the case of RRIRNRPPRLPRPRPRPWCAPRP it was -0.0696.

On to RRIRARPPRLPRPRPRPRHLPRP, for which the “shrunken log2 fold change” value was determined as 0.11.

Turning to RRIRYRPPRLPRPRPRPFVIPRP, the “shrunken log2 fold change” value was -0.31.

Regarding RRIRGRPPRLPRPRPRPIVFPRP, the “shrunken log2 fold change” value is 0.194.

Take RRIRMRPPRLPRPRPRPHDCPRP: the “shrunken log2 fold change” value worked out at 0.0419. With RRIRSRPPRLPRPRPRPEFDPRP, the “shrunken log2 fold change” value came out at 0.202. The value for RRIRDRPPRLPRPRPRPGVRPRP was 0.502; that for RRIRFRPPRLPRPRPRPTGSPRP was -0.103.

As to RRIRVRPPRLPRPRPRPESRPRP, the “shrunken log2 fold change” value is -0.0259. As to RRIRGRPPRLPRPRPRPGKEPRP, the “shrunken log2 fold change” value was determined as 0.225. Turning to RRIRARPPRLPRPRPRPVSEPRP, the “shrunken log2 fold change” value amounted to 0.338. In the case of RRIRARPPRLPRPRPRPMSMPRP it was 0.0853; in that of RRIRERPPRLPRPRPRPIMAPRP, -1.15; in that of RRIRQRPPRLPRPRPRPDCCPRP, -0.0188. The value for RRIRQRPPRLPRPRPRPPGMPRP was 0.256; that for RRIRDRPPRLPRPRPRPLHVPRP was -0.133; that for RRIRYRPPRLPRPRPRPTTVPRP was -0.243. The value for RRIRWRPPRLPRPRPRPSTMPRP was -0.284; that for RRIRERPPRLPRPRPRPTYMPRP was -0.121. Turning to RRIRCRPPRLPRPRPRPPKTPRP, the “shrunken log2 fold change” value is -0.00862.

In the case of RRIRQRPPRLPRPRPRPADAPRP, the “shrunken log2 fold change” value is 0.242. The value for RRIRYRPPRLPRPRPRPWYDPRP was -0.109; that for RRIRIRPPRLPRPRPRPKAFPRP was -0.122. The value for RRIRVRPPRLPRPRPRPIQYPRP was 0.0111; that for RRIRHRPPRLPRPRPRPRFCPRP was 0.0432. As to RRIRDRPPRLPRPRPRPVYSPRP, the “shrunken log2 fold change” value amounted to 0.0356. The value for RRIRTRPPRLPRPRPRPRIEPRP was 0.453; that for RRIRSRPPRLPRPRPRPCMRPRP was 0.0526; that for RRIRRRPPRLPRPRPRPGADPRP was 0.725. In the case of RRIRVRPPRLPRPRPRPFMVPRP it was -0.43.

The values are drawn from the supplement of paper PMC9112550, “Optimization of the antimicrobial peptide Bac7 by deep mutational scanning” (BMC Biology, 2022).
